# Results published in patent CN104744590A.
# Legend:
# [1] = target: 重组血凝素蛋白 H1N1(A/California/4/2009) (Influenza A virus H1N1 (A/California/4/2009))
# [2] = target: 重组血凝素蛋白 H1N1(A/California/7/2009) (Influenza A virus H1N1 (A/California/7/2009))
# [3] = target: 重组血凝素蛋白 H1N1(A/New Caledonia/20/1999) (Influenza A virus H1N1 (A/New Caledonia/20/1999))
# [4] = target: 重组血凝素蛋白 H1N1(A/Ohio/UR06-0091/2007) (Influenza A virus H1N1 (A/Ohio/UR06-0091/2007))
# [5] = target: 重组血凝素蛋白 H1N1(A/Puerto Rico/8/1934) (Influenza A virus H1N1 (A/Puerto Rico/8/1934)) (UniProt P03452)
# [6] = target: 重组血凝素蛋白 H1N2(A/swine/Guangxi/13/2006) (Influenza A virus H1N2 (A/swine/Guangxi/13/2006))
# [7] = target: 重组血凝素蛋白 H1N3(A/duck/NZL/160/1976) (Influenza A virus H1N3 (A/duck/NZL/160/1976))
# [8] = target: 重组血凝素蛋白 H2N2(A/Canada/720/2005) (Influenza A virus H2N2 (A/Canada/720/2005))
# [9] = target: 重组血凝素蛋白 H6N1(A/Califomia/HKWF115/2007) (Influenza A virus H6N1 (California/HKWF115/2007 as printed))
binder,measurement,setting,value
"抗甲型H1N1猪流感病毒血凝素蛋白鼠单克隆抗体 (antibody, V domains shown) VH: EIQLQQTGPELVKPGAPVKISCKASGYSLTDYIILWVKQSHGKSLEWIGNINPYFGTTSYNLKFKDKATLTVDKSSSTAYMELNSLTSEDSAVYYCARNDNYAMDYWGQGTSVTVSS VL: QIVLTQSPAIMSASLGERVTMTCTASSSVSSTYLHWYQQKPGSSPKLWIYSTSNLASGVPARFSGSGSGTSYSLTISSMEAEDAATYYCHQYHRSPYTFGGGTKLEIKR",OD450nm值,[1],2.01 OD450nm
same,OD450nm值,[2],1.88 OD450nm
same,OD450nm值,[3],0.001 OD450nm
same,OD450nm值,[4],0.015 OD450nm
same,OD450nm值,[5],0.005 OD450nm
same,OD450nm值,[6],0.004 OD450nm
same,OD450nm值,[7],0.001 OD450nm
same,OD450nm值,[8],0.002 OD450nm
same,OD450nm值,[9],0.003 OD450nm
